The experiment concerns the target human CD40 on cells (293.CD40 cells, Namalwa cells, human monocyte-derived dendritic cells) (human) (UniProt P25942). Briefly: cell-based or functional assay.
UniProt P25942, sequence (P25942 21-277): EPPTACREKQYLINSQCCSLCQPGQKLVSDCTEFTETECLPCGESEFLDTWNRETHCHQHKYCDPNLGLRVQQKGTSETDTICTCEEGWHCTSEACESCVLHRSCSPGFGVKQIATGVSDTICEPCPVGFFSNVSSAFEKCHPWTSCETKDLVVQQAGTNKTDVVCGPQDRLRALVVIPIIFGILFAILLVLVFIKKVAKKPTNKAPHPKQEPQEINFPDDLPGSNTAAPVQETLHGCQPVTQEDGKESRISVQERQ

“Fc-G28.5 (fusion of anti-CD40 single chain antibody G28.5 with the Fc domain of human immunoglobulin and a six-histidine sequence) (Fc fusion)” displayed a reporter gene delivery to human monocyte-derived dendritic cells by Ad5.DR-LL-Cd complexed with the ligand, fold over Ad5.DR of 28 to 35 fold.
Turning to “Fc-CD40L (TNF-like domain of human CD40 Ligand fused to the hinge region of the Fc domain of human IgG gamma 1) (from UniProt P29965 116-261) (Fc fusion)”, the reporter gene delivery to human monocyte-derived dendritic cells by Ad5.DR-LL-Cd complexed with the ligand, fold over Ad5.DR was in the range of 28 to 35 fold.

These data come from patent US20050003548A1.
